Test results published in the supplement of paper PMC10126150.
± gives the standard deviation of the averaged measurements.

test system: ATP; test: switch fluorescence ratio, 500 uM ATP over buffer (Cy3 cluster intensity, sum of 5 cycles each) (fold (ratio)); higher = stronger signal-on switching upon ATP binding; sequences stand for … in TCGTCGGCAGCGTCAGATGTGTATAAGAGACAGTTTTTTTTTTTTTTTTTTTTTTTTT…TC; conditions: aptamer strand: ATP DNA aptamer (quencher-CACCTGGGGGAGTATTGCGGAGGAAGG + anchor), 100 nM annealed; ATP concentration: 500 uM
Method in brief: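 Values give the fluorescence ratio for each switch-domain sequence, averaged from per-cluster ratios of summed target-cycle to summed buffer-cycle Cy3 intensity. The Cy3-labelled switching-strand clusters sat on a modified Illumina MiSeq flow-cell, were annealed to 100 nM quencher-labelled ATP aptamer, and were imaged in selection buffer, then after 15 min with 500 uM ATP at 22 °C. Five cycles ran with NaOH stripping and re-annealing between them, and clusters outside 100-1000 RFU were excluded.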
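Also: ATP exposure 15 min at 22 °C before imaging.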

Point of comparison: AACGAGGAGT, switch fluorescence ratio 1.01 ± 0.0058. Against it:
- AACCAGGGGC — higher, 1.37 ± 0.091
- AACCAGTGAT — higher, 1.05 ± 0.017
- AACCATTAGG — lower, 0.9956 ± 0.0053
- AACCCAATTT — lower, 0.985 ± 0.015
- AACCCGGGGT — within error, 0.99 ± 0.045
- AACCCTTTCA — higher, 1.06 ± 0.035
- AACCGCCCTT — higher, 1.27 ± 0.15
- AACCGGGATC — higher, 1.14 ± 0.013
- AACCTGGTAT — the same, 1.01 ± 0.035
- AACCTTAGTC — higher, 1.1 ± 0.045
- AACGAAAAAG — within error, 1.12 ± 0.18
- AACGAAAATG — within error, 0.997 ± 0.053
- AACGAAGGTA — lower, 0.9884 ± 0.0011
- AACGACTATG — higher, 1.05 ± 0.029
- AACGAGGGGA — lower, 0.9716 ± 0.0045
- AACGAGTGAC — higher, 1.04 ± 0.019
- AACGAGTGAG — the same, 1.01 ± 0.023
- AACGAGTGGG — within error, 1.03 ± 0.019
- AACGCATAGG — higher, 1.176 ± 0.0078
- AACGCATATT — higher, 1.85 ± 0.78
- AACGCCATGC — higher, 2.68 ± 0.38
- AACGCTCGTC — within error, 1.02 ± 0.06
- AACGGAAAGG — the same, 1.01 ± 0.017
- AACGGGAATT — higher, 1.039 ± 0.0056
- AACGGGGAAG — within error, 0.995 ± 0.022
- AACGGGGGGT — within error, 0.997 ± 0.033
- AACGGGGTAG — within error, 0.983 ± 0.034
- AACGGGTTAT — within error, 0.995 ± 0.032
- AACGGGTTGG — within error, 0.998 ± 0.047
- AACGGTAAAT — the same, 1.01 ± 0.085
- AACGGTAGGT — the same, 1.01 ± 0.018
- AACGGTCTTT — within error, 0.997 ± 0.014
- AACGTATGTG — lower, 0.937 ± 0.025
- AACGTGGCGG — within error, 0.988 ± 0.018
- AACGTGGGGC — the same, 1.01 ± 0.05
- AACGTGTATT — within error, 1.1 ± 0.12
- AACGTTATGC — higher, 1.13 ± 0.069
- AACGTTTAAA — within error, 1.04 ± 0.1
- AACGTTTTCC — higher, 1.23 ± 0.1
- AACTAATTCA — lower, 0.99298 ± 0.00078
- AACTACAACG — higher, 1.05 ± 0.018
- AACTAGTCAA — within error, 1.015 ± 0.0081
- AACTAGTGGC — within error, 0.998 ± 0.049
- AACTAGTGGG — within error, 1.02 ± 0.024
- AACTCATTCA — within error, 1.02 ± 0.025
- AACTGAGAAG — lower, 0.988 ± 0.015
- AACTGAGTGC — within error, 1 ± 0.043
- AACTGGGGTG — within error, 1.03 ± 0.03
- AACTGGTGTC — the same, 1.006 ± 0.003
- AACTTACTTT — higher, 1.13 ± 0.021
- AACTTCAGCT — within error, 0.995 ± 0.03
- AACTTGGCTT — lower, 0.969 ± 0.035
- AACTTTTATG — within error, 1 ± 0.026
- AACTTTTTAT — within error, 1.04 ± 0.042
- AACTTTTTGG — lower, 0.99 ± 0.013
- AAGAAAGGGC — within error, 1 ± 0.041
- AAGAAAGTGG — within error, 0.993 ± 0.034
- AAGAAGACGG — within error, 1.23 ± 0.35
- AAGAAGTAGG — within error, 1 ± 0.062
- AAGAAGTCCT — within error, 0.983 ± 0.034
- AAGAATGCGG — within error, 0.988 ± 0.027
- AAGAATGGCC — lower, 0.954 ± 0.0032
- AAGAATGTGT — within error, 0.978 ± 0.056
- AAGAATTGCG — lower, 0.97 ± 0.033
- AAGACGAGTT — lower, 0.9962 ± 0.0022
- AAGACGGGTT — within error, 1.02 ± 0.077
- AAGACTGAGG — lower, 0.956 ± 0.026
- AAGACTTTTT — within error, 1.025 ± 0.0076
- AAGAGAACTT — within error, 0.993 ± 0.013
- AAGAGAGAGC — lower, 0.989 ± 0.007
- AAGAGAGGGT — within error, 0.998 ± 0.042
- AAGAGCACT — within error, 1.05 ± 0.048
- AAGAGGATGG — lower, 0.979 ± 0.011
- AAGAGGCCCC — within error, 0.9991 ± 0.0067
- AAGAGGGGAT — within error, 0.985 ± 0.031
- AAGAGGGGCG — higher, 1.022 ± 0.0032
- AAGAGGGTAA — lower, 0.963 ± 0.012
- AAGAGGTAAA — lower, 0.972 ± 0.025
- AAGAGGTTGC — within error, 0.99 ± 0.044
- AAGAGTACAT — within error, 0.993 ± 0.034
- AAGAGTGCGG — lower, 0.9742 ± 0.0074
- AAGAGTGGCT — within error, 1.03 ± 0.017
- AAGAGTTGTA — the same, 1.01 ± 0.019
- AAGATGAGCT — within error, 1.004 ± 0.0043
- AAGATGCTTA — lower, 0.9863 ± 0.0012
- AAGATGGTGG — within error, 1.004 ± 0.0057
- AAGATTATGG — within error, 0.984 ± 0.035
- AAGATTGCTT — lower, 0.9874 ± 0.0032
- AAGATTTGGG — within error, 0.991 ± 0.027
- AAGCAGAGGC — lower, 1.004 ± 0.0031
- AAGCAGGCGG — within error, 1.02 ± 0.021
- AAGCAGGGGT — within error, 0.982 ± 0.074
- AAGCCAAGGT — higher, 1.033 ± 0.0084
- AAGCCAGGGG — higher, 1.46 ± 0.0077
- AAGCCATCCG — higher, 1.07 ± 0.04
- AAGCCCGACG — higher, 1.13 ± 0.11
- AAGCCCGAGG — lower, 0.981 ± 0.02
- AAGCCGCTCG — within error, 1 ± 0.015
- AAGCCGGAGC — within error, 1.02 ± 0.053
- AAGCCGTTTG — within error, 1.07 ± 0.088
- AAGCGAAAAA — the same, 1.01 ± 0.092
- AAGCGAAAGA — higher, 1.03 ± 0.014
- AAGCGCGACG — within error, 0.991 ± 0.027
- AAGCGGAGCC — lower, 0.966 ± 0.023
- AAGCGGGAGG — within error, 1.02 ± 0.011
- AAGCGGGCCT — within error, 1.02 ± 0.026
- AAGCGTAGAT — the same, 1.009 ± 0.0074
- AAGCGTTAGC — the same, 1.01 ± 0.014
- AAGCGTTGAG — the same, 1.009 ± 0.0045
- AAGCGTTGTA — the same, 1.01 ± 0.02
- AAGCTCGACG — lower, 0.9695 ± 0.0026
- AAGCTCGCCG — within error, 0.981 ± 0.06
- AAGCTGGGAC — higher, 1.08 ± 0.015
- AAGCTGGGGG — lower, 0.969 ± 0.033
- AAGCTGGTG — higher, 1.09 ± 0.042
- AAGGAAAAAC — within error, 1.03 ± 0.029
- AAGGAAACGT — within error, 1.04 ± 0.039
- AAGGAATAGT — the same, 1.01 ± 0.026
- AAGGAATCGC — within error, 1 ± 0.027
- AAGGAATGCA — within error, 0.993 ± 0.022
- AAGGACGGCC — within error, 0.998 ± 0.026
- AAGGAGAATA — higher, 1.03 ± 0.012
- AAGGAGCTAT — higher, 1.05 ± 0.026
- AAGGAGGGGG — within error, 1.02 ± 0.058
- AAGGAGGGTA — the same, 1.01 ± 0.038
- AAGGAGTTGT — lower, 0.951 ± 0.05
- AAGGAGTTTG — within error, 0.969 ± 0.045
- AAGGATCTGC — within error, 0.967 ± 0.052
- AAGGATGAGG — within error, 0.987 ± 0.021
- AAGGATGTAA — within error, 0.995 ± 0.03
- AAGGATGTTT — lower, 0.9824 ± 0.0033
- AAGGCAAATT — within error, 0.986 ± 0.026
- AAGGCAAGTC — higher, 1.13 ± 0.091
- AAGGCACTTT — within error, 1.02 ± 0.013
- AAGGCAGATC — within error, 1.05 ± 0.037
- AAGGCAGGTC — within error, 1.02 ± 0.029
- AAGGCCCTGA — within error, 0.994 ± 0.012
- AAGGCGAGGA — higher, 1.043 ± 0.0043
- AAGGCGCTCT — within error, 0.997 ± 0.014
- AAGGCGGATT — within error, 1.26 ± 0.36
- AAGGCTGAGG — lower, 0.985 ± 0.018
- AAGGCTGCGA — within error, 1.018 ± 0.0076
- AAGGGAAGGG — within error, 0.998 ± 0.025
- AAGGGAAGT — within error, 1.02 ± 0.034
- AAGGGAATTA — lower, 0.986 ± 0.015
- AAGGGACAAA — higher, 1.04 ± 0.014
- AAGGGACGTG — lower, 0.984 ± 0.019
- AAGGGAGAAA — within error, 0.984 ± 0.06
- AAGGGAGAGA — within error, 1.02 ± 0.011
- AAGGGAGCTG — within error, 1.02 ± 0.15
- AAGGGAGGGA — the same, 1.01 ± 0.036
- AAGGGATACG — within error, 1.02 ± 0.015
